From paper PMC11246235 come the findings set out here.

The experiment deals with T1, CST (Ctc1/Stn1/Ten1), His6-MBP tag of Ctc1 cleaved off (human), Q2NKJ3.
T1 chain 1: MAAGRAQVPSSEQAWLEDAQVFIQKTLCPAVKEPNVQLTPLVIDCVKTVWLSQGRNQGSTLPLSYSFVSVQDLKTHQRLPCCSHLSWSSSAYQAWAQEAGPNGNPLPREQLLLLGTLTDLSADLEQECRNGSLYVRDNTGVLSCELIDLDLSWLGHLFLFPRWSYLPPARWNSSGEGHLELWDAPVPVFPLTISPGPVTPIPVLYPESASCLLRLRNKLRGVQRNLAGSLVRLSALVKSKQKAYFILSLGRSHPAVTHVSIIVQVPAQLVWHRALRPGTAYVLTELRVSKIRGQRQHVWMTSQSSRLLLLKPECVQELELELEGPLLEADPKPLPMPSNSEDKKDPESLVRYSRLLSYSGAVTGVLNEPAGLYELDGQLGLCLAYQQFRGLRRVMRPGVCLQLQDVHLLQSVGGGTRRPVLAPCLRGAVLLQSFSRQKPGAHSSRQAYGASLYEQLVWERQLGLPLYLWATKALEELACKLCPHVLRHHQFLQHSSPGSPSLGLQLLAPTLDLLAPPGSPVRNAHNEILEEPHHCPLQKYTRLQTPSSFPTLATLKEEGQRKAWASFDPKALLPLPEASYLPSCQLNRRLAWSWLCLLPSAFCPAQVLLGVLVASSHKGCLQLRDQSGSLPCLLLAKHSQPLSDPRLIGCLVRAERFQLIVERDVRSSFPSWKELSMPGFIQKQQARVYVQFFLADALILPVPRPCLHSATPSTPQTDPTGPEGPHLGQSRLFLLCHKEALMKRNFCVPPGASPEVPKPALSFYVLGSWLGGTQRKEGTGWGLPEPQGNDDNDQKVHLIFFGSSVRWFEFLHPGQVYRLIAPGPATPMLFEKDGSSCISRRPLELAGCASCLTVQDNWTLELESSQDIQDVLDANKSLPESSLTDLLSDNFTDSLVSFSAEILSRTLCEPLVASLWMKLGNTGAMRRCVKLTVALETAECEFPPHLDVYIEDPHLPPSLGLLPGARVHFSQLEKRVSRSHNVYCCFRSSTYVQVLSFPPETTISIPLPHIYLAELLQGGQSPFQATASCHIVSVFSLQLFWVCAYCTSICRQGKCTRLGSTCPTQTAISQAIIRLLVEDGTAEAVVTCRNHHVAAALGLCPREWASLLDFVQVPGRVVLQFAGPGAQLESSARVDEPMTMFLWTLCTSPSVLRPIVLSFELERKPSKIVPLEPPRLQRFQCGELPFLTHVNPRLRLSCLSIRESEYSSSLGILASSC
T1 chain 2: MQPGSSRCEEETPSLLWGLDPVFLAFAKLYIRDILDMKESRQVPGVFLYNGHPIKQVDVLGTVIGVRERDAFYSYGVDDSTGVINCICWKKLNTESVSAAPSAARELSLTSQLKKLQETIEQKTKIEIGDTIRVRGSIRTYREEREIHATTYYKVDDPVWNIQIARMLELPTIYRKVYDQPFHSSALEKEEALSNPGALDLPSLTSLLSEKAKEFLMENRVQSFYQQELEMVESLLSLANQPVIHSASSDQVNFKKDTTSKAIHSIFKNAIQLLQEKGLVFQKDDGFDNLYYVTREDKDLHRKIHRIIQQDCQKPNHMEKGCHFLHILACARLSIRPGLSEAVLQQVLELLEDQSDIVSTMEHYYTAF
T1 chain 3: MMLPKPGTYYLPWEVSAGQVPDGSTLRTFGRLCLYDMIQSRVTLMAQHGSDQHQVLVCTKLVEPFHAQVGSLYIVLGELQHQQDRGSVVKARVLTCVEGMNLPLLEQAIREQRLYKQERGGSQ
Put plainly: negative-stain EM. To be noted: remark: other sources report otherwise.

B1: CST (Ctc1/Stn1/Ten1), His6-MBP tag of Ctc1 cleaved off, Q2NKJ3 1-1217; Q9H668 1-368; Q86WV5 1-123 (complex)
chain 1: MAAGRAQVPSSEQAWLEDAQVFIQKTLCPAVKEPNVQLTPLVIDCVKTVWLSQGRNQGSTLPLSYSFVSVQDLKTHQRLPCCSHLSWSSSAYQAWAQEAGPNGNPLPREQLLLLGTLTDLSADLEQECRNGSLYVRDNTGVLSCELIDLDLSWLGHLFLFPRWSYLPPARWNSSGEGHLELWDAPVPVFPLTISPGPVTPIPVLYPESASCLLRLRNKLRGVQRNLAGSLVRLSALVKSKQKAYFILSLGRSHPAVTHVSIIVQVPAQLVWHRALRPGTAYVLTELRVSKIRGQRQHVWMTSQSSRLLLLKPECVQELELELEGPLLEADPKPLPMPSNSEDKKDPESLVRYSRLLSYSGAVTGVLNEPAGLYELDGQLGLCLAYQQFRGLRRVMRPGVCLQLQDVHLLQSVGGGTRRPVLAPCLRGAVLLQSFSRQKPGAHSSRQAYGASLYEQLVWERQLGLPLYLWATKALEELACKLCPHVLRHHQFLQHSSPGSPSLGLQLLAPTLDLLAPPGSPVRNAHNEILEEPHHCPLQKYTRLQTPSSFPTLATLKEEGQRKAWASFDPKALLPLPEASYLPSCQLNRRLAWSWLCLLPSAFCPAQVLLGVLVASSHKGCLQLRDQSGSLPCLLLAKHSQPLSDPRLIGCLVRAERFQLIVERDVRSSFPSWKELSMPGFIQKQQARVYVQFFLADALILPVPRPCLHSATPSTPQTDPTGPEGPHLGQSRLFLLCHKEALMKRNFCVPPGASPEVPKPALSFYVLGSWLGGTQRKEGTGWGLPEPQGNDDNDQKVHLIFFGSSVRWFEFLHPGQVYRLIAPGPATPMLFEKDGSSCISRRPLELAGCASCLTVQDNWTLELESSQDIQDVLDANKSLPESSLTDLLSDNFTDSLVSFSAEILSRTLCEPLVASLWMKLGNTGAMRRCVKLTVALETAECEFPPHLDVYIEDPHLPPSLGLLPGARVHFSQLEKRVSRSHNVYCCFRSSTYVQVLSFPPETTISIPLPHIYLAELLQGGQSPFQATASCHIVSVFSLQLFWVCAYCTSICRQGKCTRLGSTCPTQTAISQAIIRLLVEDGTAEAVVTCRNHHVAAALGLCPREWASLLDFVQVPGRVVLQFAGPGAQLESSARVDEPMTMFLWTLCTSPSVLRPIVLSFELERKPSKIVPLEPPRLQRFQCGELPFLTHVNPRLRLSCLSIRESEYSSSLGILASSC
chain 2: MQPGSSRCEEETPSLLWGLDPVFLAFAKLYIRDILDMKESRQVPGVFLYNGHPIKQVDVLGTVIGVRERDAFYSYGVDDSTGVINCICWKKLNTESVSAAPSAARELSLTSQLKKLQETIEQKTKIEIGDTIRVRGSIRTYREEREIHATTYYKVDDPVWNIQIARMLELPTIYRKVYDQPFHSSALEKEEALSNPGALDLPSLTSLLSEKAKEFLMENRVQSFYQQELEMVESLLSLANQPVIHSASSDQVNFKKDTTSKAIHSIFKNAIQLLQEKGLVFQKDDGFDNLYYVTREDKDLHRKIHRIIQQDCQKPNHMEKGCHFLHILACARLSIRPGLSEAVLQQVLELLEDQSDIVSTMEHYYTAF
chain 3: MMLPKPGTYYLPWEVSAGQVPDGSTLRTFGRLCLYDMIQSRVTLMAQHGSDQHQVLVCTKLVEPFHAQVGSLYIVLGELQHQQDRGSVVKARVLTCVEGMNLPLLEQAIREQRLYKQERGGSQ
For the molecule B1, the stoichiometry N turned out to be 2.
